Patent US20100150834A1 (BURNHAM INSTITUTE, published 2010)

T1: murine EphB4 ectodomain (murine, UniProt P54761 16-539)
T1 construct: extracellular domain; Coated on wells; also called immobilized EphB4 receptor ectodomain
T1 sequence (looked up): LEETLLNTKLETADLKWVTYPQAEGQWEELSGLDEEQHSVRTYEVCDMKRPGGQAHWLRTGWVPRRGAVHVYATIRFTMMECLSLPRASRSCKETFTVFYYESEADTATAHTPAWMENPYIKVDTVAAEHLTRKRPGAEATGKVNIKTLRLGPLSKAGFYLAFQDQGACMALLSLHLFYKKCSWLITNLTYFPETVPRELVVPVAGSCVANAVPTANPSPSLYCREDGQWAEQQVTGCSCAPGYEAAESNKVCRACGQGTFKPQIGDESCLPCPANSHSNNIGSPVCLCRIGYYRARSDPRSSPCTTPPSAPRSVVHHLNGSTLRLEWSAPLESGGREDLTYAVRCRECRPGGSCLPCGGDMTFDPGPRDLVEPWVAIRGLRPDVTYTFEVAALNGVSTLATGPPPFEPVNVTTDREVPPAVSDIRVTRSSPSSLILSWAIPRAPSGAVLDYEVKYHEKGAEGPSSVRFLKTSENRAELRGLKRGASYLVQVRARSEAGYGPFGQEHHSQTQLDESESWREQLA

T2: EphB4 (receptor of Table 1) (Mus musculus (Mouse), UniProt P54761 16-539)
T2 sequence: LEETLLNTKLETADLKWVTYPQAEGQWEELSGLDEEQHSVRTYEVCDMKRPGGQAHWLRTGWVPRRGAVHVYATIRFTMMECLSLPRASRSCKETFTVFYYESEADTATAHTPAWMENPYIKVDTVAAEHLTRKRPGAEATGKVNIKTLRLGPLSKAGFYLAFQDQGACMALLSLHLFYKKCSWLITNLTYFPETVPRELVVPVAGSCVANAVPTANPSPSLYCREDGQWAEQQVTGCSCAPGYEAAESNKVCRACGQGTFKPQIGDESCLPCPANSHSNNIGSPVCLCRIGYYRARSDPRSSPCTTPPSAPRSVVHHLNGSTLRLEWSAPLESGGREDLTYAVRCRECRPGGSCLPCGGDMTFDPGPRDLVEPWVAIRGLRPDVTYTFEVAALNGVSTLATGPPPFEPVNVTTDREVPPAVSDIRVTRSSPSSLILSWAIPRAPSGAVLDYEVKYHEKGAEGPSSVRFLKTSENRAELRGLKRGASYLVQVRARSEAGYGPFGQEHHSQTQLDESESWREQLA

T3: murine EphB4-Alkaline Phosphatase (murine, UniProt P54761 16-539)
T3 construct: also called EphB4-AP; EphB4 AP; not shown: alkaline phosphatase
T3 sequence (looked up): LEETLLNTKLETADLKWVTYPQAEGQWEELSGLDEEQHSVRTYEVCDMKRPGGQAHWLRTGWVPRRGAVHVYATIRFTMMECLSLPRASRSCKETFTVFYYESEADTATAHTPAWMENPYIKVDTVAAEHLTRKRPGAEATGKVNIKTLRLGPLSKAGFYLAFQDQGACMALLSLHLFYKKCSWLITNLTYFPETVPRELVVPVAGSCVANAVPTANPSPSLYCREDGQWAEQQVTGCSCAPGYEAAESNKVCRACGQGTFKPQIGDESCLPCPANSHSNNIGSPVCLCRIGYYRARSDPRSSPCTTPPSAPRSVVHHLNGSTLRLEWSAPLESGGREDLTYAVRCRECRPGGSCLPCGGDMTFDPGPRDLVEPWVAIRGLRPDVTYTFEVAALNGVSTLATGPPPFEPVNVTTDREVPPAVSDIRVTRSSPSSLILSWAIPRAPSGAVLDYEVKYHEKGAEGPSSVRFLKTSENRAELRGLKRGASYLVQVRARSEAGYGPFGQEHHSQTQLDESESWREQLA


What was measured:
[1] = target: T1, murine EphB4 ectodomain; experiment: inhibition of murine ephrin-B2 AP binding to immobilised murine EphB4 ectodomain
[2] = target: EphB1 (receptor of Table 1); experiment: EphB receptor specificity panel (% binding)
[3] = target: EphB2 (receptor of Table 1); experiment: EphB receptor specificity panel (% binding)
[4] = target: EphB3 (receptor of Table 1); experiment: EphB receptor specificity panel (% binding)
[5] = target: T2, EphB4 (receptor of Table 1); experiment: EphB receptor specificity panel (% binding)
[6] = target: EphB6 (receptor of Table 1); experiment: EphB receptor specificity panel (% binding)
[7] = target: T3, murine EphB4-Alkaline Phosphatase; experiment: ELISA binding curve: ephrin-B2 Fc immobilised, increasing volumes of murine EphB4 AP, OD405; one experiment
[8] = target: T2, EphB4 (receptor of Table 1); experiment: inhibition of ephrin-B2 AP binding to EphB4 (panning receptor)
[9] = target: EphB2 (receptor of Table 1); experiment: inhibition of ephrin-B2 AP binding to EphB2 (panning receptor)

IC50 [1] | % Binding [2] | % Binding [3] | % Binding [4] | % Binding [5] | % Binding [6] | Kd [7] | IC50 [8] | IC50 [9] | Binder
~0.04 µM | – | – | – | – | – | – | – | – | NYLFSPNGPIARAW [NYL-RAW peptide NYLFSPNGPIARAW (SEQ ID NO:40)]
– | 86% | 100% | 5% | 0% | 0% | – | – | – | THWKFQPWALVT (Panned on EphB1) [THWKFQPWALVT peptide (SEQ ID NO:5)]
– | – | – | – | – | – | 0.0006 µM | – | – | ephrin-B2 Fc (Example 7) (Fc fusion, not shown: a dimerising Fc or GST; small tags and cut ends, also called ephrin B2 Fc protein; ephrin B2 Fc fusion protein) RSIVLEPIYWNSSNSKFLPGQGLVLYPQIGDKLDIICPKVDSKTVGQYEYYKVYMVDKDQADRCTIKKENTPLLNCARPDQDVKFTIKFQEFSPNLWGLEFQKNKDYYIISTSNGSLEGLDNQEGGVCQTRAMKILMKVGQDASSAGSARNHGPTRRPELEAGTNGRSSTTSPFVKPNPGSSTDGNSAGHSGNNLLGSEVALFA
– | 100% | 89% | 85% | 20% | 26% | – | – | – | THWCHLLNCAAL (Panned on EphB2) [THWCHLLNCAAL peptide (SEQ ID NO:6)]
– | 100% | 81% | 5% | 5% | 2% | – | – | – | DHWYYTPWQPIE (Panned on EphB2) [DHWYYTPWQPIE peptide (SEQ ID NO:9)]
– | 16% | 12% | 29% | 100% | 17% | – | – | – | EFFTWRPTYYGI (Panned on EphB4) [EFFTWRPTYYGI peptide (SEQ ID NO:23)]
– | 54% | 100% | 31% | 13% | 15% | – | – | – | WHRYPDPRMLPT (Panned on EphB2) [WHRYPDPRMLPT peptide (SEQ ID NO:7)]
– | 1% | 2% | 1% | 100% | 3% | – | – | – | GPVERAWRPDLI (Panned on EphB4) [GPVERAWRPDLI peptide (SEQ ID NO:30)]
– | – | – | – | 100% | – | – | – | – | IPWTQHMAMSPM (Panned on EphB4) [… peptide (SEQ ID NO:34)]
– | 16% | 17% | 20% | 100% | 14% | – | – | – | WGIPRAAQVMWT (Panned on EphB4) [WGIPRAAQVMWT peptide (SEQ ID NO:33)]
– | 100% | 0% | 1% | 0% | 0% | – | – | – | TTLSQLPKSTWL (Panned on EphB1) [TTLSQLPKSTWL peptide (SEQ ID NO:2)]
– | 4% | 6% | 16% | 100% | 7% | – | – | – | GPVHRAWEPTSH (Panned on EphB4) [GPVHRAWEPTSH peptide (SEQ ID NO:29)]
– | 88% | 100% | 10% | 9% | 0% | – | – | – | SHKFPGPPSWMS (Panned on EphB1) [SHKFPGPPSWMS peptide (SEQ ID NO:4)]
> 10 µM | – | – | – | – | – | – | – | – | LFSPNGPIARAW [L-RAW peptide LFSPNGPIARAW (SEQ ID NO:42)]
– | 18% | 100% | 22% | 22% | 0% | – | – | – | NHWPTQPYAIPI (Panned on EphB2) [NHWPTQPYAIPI peptide (SEQ ID NO:15)]
– | 0% | 0% | 10% | 100% | 16% | – | > 100 µM | – | DALNDWLLFRPW (Panned on EphB4) [DALNDWLLFRPW peptide (SEQ ID NO:20)]
– | 9% | 8% | 9% | 100% | 7% | – | ~200 µM | – | DHNHNLYNPWRL (Panned on EphB4) [DHNHNLYNPWRL peptide (SEQ ID NO:21)]

IC50 [1] | % Binding [2] | % Binding [3] | % Binding [4] | % Binding [5] | % Binding [6] | Kd [7] | IC50 [8] | IC50 [9] | Binder
– | – | – | – | 100% | – | – | – | – | SGHQLLLNKMPN (Panned on EphB4) [SGHQLLLNKMPN peptide (SEQ ID NO:35)]
– | 1% | 0% | 4% | 100% | 0% | – | > 500 µM | – | NPVIGPIQRAWT (Panned on EphB4) [NPVIGPIQRAWT peptide (SEQ ID NO:27)]
– | 2% | 15% | 2% | 100% | 4% | – | – | – | LPHGPVAAAWDA (Panned on EphB4) [LPHGPVAAAWDA peptide (SEQ ID NO:26)]
– | 4% | 100% | 7% | 0% | 0% | – | – | – | DHWPLLPYALAH (Panned on EphB2) [… peptide (SEQ ID NO:16)]
– | 0% | 100% | 0% | 0% | 0% | – | – | – | WPPHWPRSLDYA (Panned on EphB2) [WPPHWPRSLDYA peptide (SEQ ID NO:17)]
– | 97% | 100% | 4% | 4% | 7% | – | – | – | IHWPVAPYSYLD (Panned on EphB2) [IHWPVAPYSYLD peptide (SEQ ID NO:11)]
– | 100% | 97% | 1% | 0% | 1% | – | – | – | DHWRVSPYSLLY (Panned on EphB2) [DHWRVSPYSLLY peptide (SEQ ID NO:13)]
~0.04 µM | – | – | – | – | – | – | – | – | YLFSPNGPIARAW [YL-RAW peptide YLFSPNGPIARAW (SEQ ID NO:41)]
– | 53% | 100% | 4% | 1% | 3% | – | – | > 100 µM | DHWRILPFSLSS (Panned on EphB2) [DHWRILPFSLSS peptide (SEQ ID NO:10)]
– | 10% | 5% | 4% | 100% | 6% | – | – | – | GPVADAWLVYPR (Panned on EphB4) [GPVADAWLVYPR peptide (SEQ ID NO:32)]
– | 13% | 8% | 11% | 100% | 11% | – | > 600 µM | – | FSPQGPAARNFA (Panned on EphB4) [FSPQGPAARNFA peptide (SEQ ID NO:25)]
– | 39% | 100% | 9% | 4% | 8% | – | – | > 100 µM | SHWPISPYSLLS (Panned on EphB2) [SHWPISPYSLLS peptide (SEQ ID NO:14)]
– | 98% | 100% | 9% | 6% | 10% | – | – | – | SHWPVLPFAHWQ (Panned on EphB2) [SHWPVLPFAHWQ peptide (SEQ ID NO:12)]
– | 99% | 100% | 22% | 20% | 45% | – | – | > 100 µM | WHWTIEPFAITS (Panned on EphB2) [WHWTIEPFAITS peptide (SEQ ID NO:8)]
– | 22% | 23% | 23% | 100% | 30% | – | > 600 µM | – | EWYMKFPPEHYF (Panned on EphB4) [EWYMKFPPEHYF peptide (SEQ ID NO:19)]
– | 22% | 6% | 2% | 100% | 6% | – | – | – | SHVGPIMRAWAP (Panned on EphB4) [SHVGPIMRAWAP peptide (SEQ ID NO:28)]
– | 13% | 13% | 14% | 100% | 16% | – | – | – | GPVSKAWQETET (Panned on EphB4) [GPVSKAWQETET peptide (SEQ ID NO:31)]
